Target: [Lys]plasminogen (human)
Experiment: kinetics of conformational plasminogen activation

“streptokinase ALAB49 SK2b variant with Tyr4 substituted by Pro (natural protein)” showed a Kd of 600 nM.

Source: PMC4498406
